The values that follow come from paper PMC6992781 (Nature Communications, 2020).

This test has as its target full-length RABV G (isolate 8743THA) (Rabies lyssavirus, isolate 8743THA, UniProt B2XY12, strain). In words: flow cytometry on cells. As to conditions: one partner purified. In general terms: Flow cytometry measures light scatter and fluorescence of single cells or particles in a stream.

B1: RVC20 (human broadly neutralizing monoclonal antibody, recombinant IgG1/kappa) (antibody, V domains shown)
VH: QVQLQESGPGLVKPSQTLSLTCTVSGGSFSSGSYSWNWIRQHPGKGLEWIGYIYYSGSTYYNPSLKSRVTMSVHTSKNQFSLKLNSITAADTAVYYCARGTYSDFWSGSPLDYWGQGTLVTVSS
VL: DIQMTQSPSSLSASVGDRVTITCRASQGISNYLAWFQQKPGKAPKSLIYAASSLQSGVPSRFSGSGSGTDFTLTINSLQPEDFVTYFCQQYDTYPLTFGGGTKVEIK
For B1, the binding result is on record as “binds”.
